Literature values as cited in publication PMC10419064.

Biological target: Cardiac troponin I switch peptide (Homo sapiens) (UniProt P19429)

Kd: < 50 µM
Substance: Cardiac troponin C regulatory N-domain (from UniProt P63316)
